Measured values taken from the supplement of paper PMC9732359.
± gives the uncertainty stated by the source.

Assay: protein stability index of a GFP-peptide fusion (yeast GPS) (PSI 1-4); higher = more stable; sorted into four equal gates, so the index is relative within each strain
Conditions: pdr5∆
Method in brief: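 Yeast carrying a pooled library were grown to mid-log phase in leucine-free medium. Each library plasmid expresses Cherry and has a tiled 17-residue yeast protein peptide fused downstream of GFP. Cells were sorted into four equal gates by GFP/Cherry ratio, and plasmids from each gate were PCR-amplified, Illumina-sequenced and assigned to strains by barcode. Summing, across gates, the read frequency times the gate number gave each peptide's protein stability index.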

| Sequence | protein stability index |
| --- | --- |
| EFIYLTKVLQFAAKQRQ [SNF2] | 1.28 ± 0.15 |
| EFNGFSLYQVDPSGSYF [PRE8] | 2.05 ± 0.08 |
| EFTPADPNLSFESSSSL [SSN2] | 3.09 ± 0.12 |

Same assay, conditions: san1∆

| Sequence | protein stability index |
| --- | --- |
| DLVKPKNPKFSNAFYSV [SMC4] | 2.26 ± 0.074 |
| DLWNNFGNIMDNLLEMS [RRP6] | 3.21 ± 0.058 |
| DMIKCFLPKLNSVRNSL [NUT1] | 2.47 ± 0.075 |
| DMLLHKYYIVSSSKSMI [SRB8] | 1.7 ± 0.14 |
| DMSKILVDQGFNYSGKD [RET1] | 3.31 ± 0.04 |
| DMVKLDINPPLVFILAV [RRP42] | 2.2 ± 0.07 |
| DNETKAMLINLILRDFL [RPN3] | 2.58 ± 0.069 |
| DNLGQTKIIMATNRPDT [RPT4] | 2.79 ± 0.079 |
| DNNTASNMLGSNEDVMM [RPB3] | 2.31 ± 0.25 |
| DNVVRFLNEARDKAGRL [RPO21] | 2.56 ± 0.14 |
| DPFSIYGFSNKEYISRL [SNF5] | 2.69 ± 0.071 |
| DPLLAGLGETSGDNHTQ [RPT4] | 3.5 ± 0.19 |
| DPNNPVDFDGLDIKRVG [SNF12] | 3.32 ± 0.097 |
| DPSRELNVIIDQLAVSP [YCS4] | 2.72 ± 0.053 |
| DPTKVTEFEFYLLEELE [SSN8] | 3.21 ± 0.068 |
| DPVSGAILVPMTVNDQP [YJR042W/NUP85] | 2.28 ± 0.087 |
| DQAELPNNASSHISASA [SNF2] | 2.1 ± 0.13 |
| DQAIVTETKRLVVIRFG [DIB1] | 2.03 ± 0.1 |
| DQGNGWLYVYETPNQDA [RPN6] | 2.23 ± 0.067 |
| DQKETKKGESEKDASGK [YOR098C/NUP1] | 3.49 ± 0.097 |
| DQLLTDLIETSFTCFAQ [NUT1] | 1.88 ± 0.11 |
| DQYIQKQVQISHHLKAD [YGL172W/NUP49] | 2.6 ± 0.072 |
| DRAIRKTCQWYSEHLKP [DIS3] | 3.01 ± 0.07 |
| DRETALDFIGRRGTALG [RPB2] | 2.22 ± 0.059 |
| DRKDQDDRDHFGKKRLD [RPB2] | 3.28 ± 0.13 |

| Sequence | protein stability index |
| --- | --- |
| DRKHVAALRTVKSLVDN [RPL9B] | 2.83 ± 0.14 |
| DRKKDKNVKHSGNIQLD [RPL12A] | 3.38 ± 0.073 |
| DRQCMIMDELLSSIAER [DIB1] | 2.88 ± 0.061 |
| DRSKLKKGVRVTLDITT [RPT4] | 2.4 ± 0.089 |
| DRSKPVALTSFLGYKAG [RPL3] | 3.08 ± 0.06 |
| DRVIFRVPIRSEYKVAF [PRP8] | 2.55 ± 0.077 |
| DRVKVIECFKPGDIVRA [CSL4] | 2.1 ± 0.18 |
| DSAAIIAATGLNQINGL [GRR1] | 2.79 ± 0.083 |
| DSADVPAFSNSNGFNNV [YMR153W/NUP53] | 3.22 ± 0.041 |
| DSDELGGESMEGPKKCI [SNM1] | 3.39 ± 0.076 |
| DSENFSFEKLYEGMKLG [YMR129W/POM152] | 3.42 ± 0.098 |
| DSFIFDGTAKEVGDEAD [MED4] | 3.38 ± 0.05 |
| DSLISGVKQKITIQLTR [BRR2] | 2.66 ± 0.083 |
| DSNESDDDVTPSTKVAS [YLR335W/NUP2] | 3.26 ± 0.088 |
| DSSMTTVQENELLKSSL [AAR2] | 3.12 ± 0.095 |
| DSSVEDSTDNENSGKEM [LIN1] | 3.41 ± 0.081 |
| DSTPEEVSCKLLETITY [YML103C/NUP188] | 2.47 ± 0.075 |
| DSTVNKSITLKGRNNES [YDL088C/ASM4] | 3.23 ± 0.058 |
| DTFRAGAFDQLKQNAIR [SRP54] | 3.09 ± 0.053 |
| DTFRWVGKKSAPEKDIW [RPO31] | 2.9 ± 0.067 |
| DTKLRLEKSKNECQRLQ [YIL149C/MLP2] | 2.54 ± 0.056 |
| DTLDGDLMDDMSDISDL [RPN3] | 2.11 ± 0.13 |
| DTPTSGKHNLTIWCVCD [BRR2] | 3.14 ± 0.075 |
| DTQFTKLLDDNPTEFDW [SRB8] | 2.91 ± 0.058 |
| DTSLCINGEPSIHVNRV [RRI1] | 2.99 ± 0.053 |

| Sequence | protein stability index |
| --- | --- |
| DVDMEDRNLTEFDSTDT [RRI1] | 2.71 ± 0.13 |
| DVEDDDKETQLKKRAVS [POP7] | 2.41 ± 0.16 |
| DVLKVNTLVRPNGTKKA [RPL25] | 2.89 ± 0.1 |
| DVTPISMFGSDQKTGRA [RPN4] | 3.07 ± 0.066 |
| DYNKKQDRIQDVKLVLA [MED1] | 2.28 ± 0.11 |
| DYTLQDIICEDSTLILE [RPB2] | 2.11 ± 0.11 |
| EAEMAYVKAVSDKAQLN [SMC4] | 2.2 ± 0.072 |
| EAIDGNGEIKGENIDAD [SNF2] | 3.48 ± 0.078 |
| EAKKFEPTYRLVRYGLA [RPS24A] | 2.79 ± 0.13 |
| EANFDLINIDTSIANAF [RPC40] | 3 ± 0.05 |
| EASKKSAVKPRPLKLER [FAS1] | 2.88 ± 0.17 |
| ECENEIKTKQMSLKKCQ [SMC2] | 3.22 ± 0.076 |
| ECLQAYIFFGPIYYQKL [RET1] | 2.24 ± 0.1 |
| ECPLDPGGYFIVNGTEK [RET1] | 3.26 ± 0.088 |
| ECPVGEFLINEGTPINN [RPN14] | 2.89 ± 0.11 |
| EDEDEDDETPSCEVEEI [SNU114] | 2.99 ± 0.056 |
| EDEGEELTDEYLAENPD [PRP8] | 3.33 ± 0.12 |
| EDETVKVAQLRQTGPAK [NSL1] | 3.08 ± 0.19 |
| EDFAPLLAEEEELILPN [PRP8] | 2.93 ± 0.066 |
| EDFMDIPKPRTAGKTSV [SNF2] | 3.2 ± 0.18 |
| EDGRTLSDYNIQKESTL [RPS31] | 3.05 ± 0.065 |
| EDILQGIFNLLNTLFNP [NUT1] | 2.41 ± 0.078 |
| EDIVGALRRRVGPSEQN [REC8] | 2.71 ± 0.12 |
| EDNEMLEDLFSYRNGMA [YJR042W/NUP85] | 2.65 ± 0.089 |
| EDVLVNQILMSVNFFVS [RPL1A] | 2.08 ± 0.068 |

| Sequence | protein stability index |
| --- | --- |
| EDVVAISSRTYGQRAVL [RPS0B] | 3.01 ± 0.087 |
| EDYAIVTKGGTVENPLR [PRP28] | 3.39 ± 0.055 |
| EEAAGTKMFEDRREKAE [SMC2] | 3.26 ± 0.089 |
| EEAGEEEAKEEVTEEQA [RPS0A] | 3.02 ± 0.13 |
| EEEATMTTSAVSPTVGK [YIL149C/MLP2] | 3.229 ± 0.029 |
| EEESLHVFQYANRPRLV [RPC37] | 1.79 ± 0.13 |
| EEFAYVDPARRQILFKY [MED6] | 2.02 ± 0.09 |
| EEGEFIIDLYSLPEGLL [TAF14] | 3.57 ± 0.058 |
| EEITCALDYLIPPPMPK [MED7] | 2.06 ± 0.16 |
| EEKGWVPVTKLGRLVKA [RPS2] | 3.51 ± 0.072 |
| EELILPNTKDAMSLYHS [PRP8] | 3.36 ± 0.04 |
| EELLLKDLEIRKLEISS [GAL11] | 3.18 ± 0.081 |
| EENSQGNILDFNLNLPP [REC8] | 3.18 ± 0.051 |
| EEQEEEPDREKIKLLTQ [RPC19] | 2.52 ± 0.15 |
| EEQEKINSAPDFTQEDE [ISW2] | 3.39 ± 0.081 |
| EEQKIVKKVVKEQTEAA [RPL34A] | 3.27 ± 0.061 |
| EETDEVSSESSDEAIIP [SIR3] | 2.73 ± 0.065 |
| EETNVDIGVLEEYARRL [SMC4] | 3.64 ± 0.072 |
| EEVMRIALMGQDNKKIY [ESC2] | 2.2 ± 0.11 |
| EFDRRILKKSLMTSHTK [RTT102] | 2.4 ± 0.15 |
| EFIYLTKVLQFAAKQRQ [SNF2] | 1.39 ± 0.15 |
| EFNGFSLYQVDPSGSYF [PRE8] | 2.1 ± 0.15 |
